This note sets out measurements from paper PMC2118782.

Like-named read-outs stand apart in the source and are kept apart here.

In assay [1] the target is Ld class I major histocompatibility complex molecule (30-5-7+ Ld) (mouse). The experiment in a line: co-IP.
Assay [2] shares this target. The experiment in a line: co-IP. The source holds these as a separate data set.

Sequence of Ld class I major histocompatibility complex molecule (30-5-7+ Ld) (mouse) (P01897 25-362, one chain of several): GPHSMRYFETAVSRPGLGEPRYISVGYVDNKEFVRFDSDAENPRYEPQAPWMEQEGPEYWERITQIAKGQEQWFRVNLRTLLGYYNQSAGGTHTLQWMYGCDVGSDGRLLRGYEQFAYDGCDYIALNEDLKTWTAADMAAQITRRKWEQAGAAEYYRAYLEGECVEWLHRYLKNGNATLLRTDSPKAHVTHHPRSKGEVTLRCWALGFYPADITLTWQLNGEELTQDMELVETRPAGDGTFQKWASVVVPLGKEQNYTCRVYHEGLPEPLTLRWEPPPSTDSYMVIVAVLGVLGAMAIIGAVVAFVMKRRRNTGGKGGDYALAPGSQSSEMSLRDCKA

The substance MCMV pp89 168-176 peptide registered a percent precipitable counts in assay [1] of 98%. For the same substance, in assay [2], the pellet cpm (bound peptide) was 7630 cpm and the percent precipitable counts was 80%.
